Test results published in US20230250154A1 (CYTONICS, published 2023).

T1: ADAMTS4 (human, UniProt O75173 213-685, limits assumed)
T1 sequence (looked up): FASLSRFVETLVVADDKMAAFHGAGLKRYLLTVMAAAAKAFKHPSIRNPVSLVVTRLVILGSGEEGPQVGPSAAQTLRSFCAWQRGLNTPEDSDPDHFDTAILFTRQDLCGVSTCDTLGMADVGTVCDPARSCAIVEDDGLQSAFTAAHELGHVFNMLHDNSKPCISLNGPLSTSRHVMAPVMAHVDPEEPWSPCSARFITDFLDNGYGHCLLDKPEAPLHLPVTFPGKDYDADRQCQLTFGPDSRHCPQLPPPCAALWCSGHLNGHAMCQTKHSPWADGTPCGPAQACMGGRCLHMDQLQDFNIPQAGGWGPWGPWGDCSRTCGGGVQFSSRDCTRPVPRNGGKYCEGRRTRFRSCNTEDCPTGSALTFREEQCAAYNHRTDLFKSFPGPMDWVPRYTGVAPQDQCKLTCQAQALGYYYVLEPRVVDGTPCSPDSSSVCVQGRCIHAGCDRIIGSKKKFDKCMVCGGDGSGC

T2: ADAMTS5 (human, UniProt Q9UNA0 262-622, limits assumed)
T2 sequence (looked up): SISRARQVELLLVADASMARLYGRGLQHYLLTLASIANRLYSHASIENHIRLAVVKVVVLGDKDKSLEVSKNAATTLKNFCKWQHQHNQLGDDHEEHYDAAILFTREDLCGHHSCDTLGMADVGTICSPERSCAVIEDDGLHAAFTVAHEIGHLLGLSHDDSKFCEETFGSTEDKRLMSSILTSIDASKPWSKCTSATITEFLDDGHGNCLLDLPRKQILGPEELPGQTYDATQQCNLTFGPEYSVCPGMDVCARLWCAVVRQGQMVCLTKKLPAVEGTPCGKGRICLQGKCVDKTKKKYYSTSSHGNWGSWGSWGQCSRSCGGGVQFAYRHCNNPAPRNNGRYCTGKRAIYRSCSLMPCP

B1: Variant A2M, bait region SEQ ID NO 111 (other)
chain: SVSGKPQYMVLVPSLLHTETTEKGCVLLSYLNETVTVSASLESVRGNRSLFTDLEAENDVLHCVAFAVPKSSSNEEVMFLTVQVKGPTQEFKKRTTVMVKNEDSLVFVQTDKSIYKPGQTVKFRVVSMDENFHPLNELIPLVYIQDPKGNRIAQWQSFQLEGGLKQFSFPLSSEPFQGSYKVVVQKKSGGRTEHPFTVEEFVLPKFEVQVTVPKIITILEEEMNVSVCGLYTYGKPVPGHVTVSICRKYSDASDCHGEDSQAFCEKFSGQLNSHGCFYQQVKTKVFQLKRKEYEMKLHTEAQIQEEGTVVELTGRQSSEITRTITKLSFVKVDSHFRQGIPFFGQVRLVDGKGVPIPNKVIFIRGNEANYYSNATTDEHGLVQFSINTTNVMGTSLTVRVNYKDRSPCYGYQWVSEEHEEAHHTAYLVFSPSKSFVHLEPMSHELPCGHTQTVQAHYILNGGTLLGLKKLSFYYLIMAKGGIVRTGTHGLLVKQEDMKGHFSISIPVKSDIAPVARLLIYAVLPTGDVIGDSAKYDVENCLANKVDLSFSPSQSLPASHAHLRVTAAPQSVCALRAVDQSVLLMKPDAELSASSVYNLLPEKDLTGFPGPLNDQDDEDCINRHNVYINGITYTPVSSTNEKDMYSFLEDMGLKAFTNSKIRKPKMCPQLEARGLEGGGGGSLLGGYPGSSRGGFKEGVEGGPAGAARGKLRKYFPETWIWDLVVVNSAGVAEVGVTVPDTITEWKAGAFCLSEDAGLGISSTASLRAFQPFFVELTMPYSVIRGEAFTLKATVLNYLPKCIRVSVQLEASPAFLAVPVEKEQAPHCICANGRQTVSWAVTPKSLGNVNFTVSAEALESQELCGTEVPSVPEHGRKDTVIKPLLVEPEGLEKETTFNSLLCPSGGEVSEELSLKLPPNVVEESARASVSVLGDILGSAMQNTQNLLQMPYGCGEQNMVLFAPNIYVLDYLNETQQLTPEIKSKAIGYLNTGYQRQLNYKHYDGSYSTFGERYGRNQGNTWLTAFVLKTFAQARAYIFIDEAHITQALIWLSQRQKDNGCFRSSGSLLNNAIKGGVEDEVTLSAYITIALLEIPLTVTHPVVRNALFCLESAWKTAQEGDHGSHVYTKALLAYAFALAGNQDKRKEVLKSLNEEAVKKDNSVHWERPQKPKAPVGHFYEPQAPSAEVEMTSYVLLAYLTAQPAPTSEDLTSATNIVKWITKQQNAQGGFSSTQDTVVALHALSKYGAATFTRTGKAAQVTIQSSGTFSSKFQVDNNNRLLLQQVSLPELPGEYSMKVTGEGCVYLQTSLKYNILPEKEEFPFALGVQTLPQTCDEPKAHTSFQISLSVSYTGSRSASNMAIVDVKMVSGFIPLKPTVKMLERSNHVSRTEVSSNHVLIYLDKVSNQTLSLFFTVLQDVPVRDLKPAIVKVYDYYETDEFAIAEYNAPCSKDLGNADYKDDDDKGASHHHHHH
B2: Variant A2M, bait region SEQ ID NO 112 (other)
chain: SVSGKPQYMVLVPSLLHTETTEKGCVLLSYLNETVTVSASLESVRGNRSLFTDLEAENDVLHCVAFAVPKSSSNEEVMFLTVQVKGPTQEFKKRTTVMVKNEDSLVFVQTDKSIYKPGQTVKFRVVSMDENFHPLNELIPLVYIQDPKGNRIAQWQSFQLEGGLKQFSFPLSSEPFQGSYKVVVQKKSGGRTEHPFTVEEFVLPKFEVQVTVPKIITILEEEMNVSVCGLYTYGKPVPGHVTVSICRKYSDASDCHGEDSQAFCEKFSGQLNSHGCFYQQVKTKVFQLKRKEYEMKLHTEAQIQEEGTVVELTGRQSSEITRTITKLSFVKVDSHFRQGIPFFGQVRLVDGKGVPIPNKVIFIRGNEANYYSNATTDEHGLVQFSINTTNVMGTSLTVRVNYKDRSPCYGYQWVSEEHEEAHHTAYLVFSPSKSFVHLEPMSHELPCGHTQTVQAHYILNGGTLLGLKKLSFYYLIMAKGGIVRTGTHGLLVKQEDMKGHFSISIPVKSDIAPVARLLIYAVLPTGDVIGDSAKYDVENCLANKVDLSFSPSQSLPASHAHLRVTAAPQSVCALRAVDQSVLLMKPDAELSASSVYNLLPEKDLTGFPGPLNDQDDEDCINRHNVYINGITYTPVSSTNEKDMYSFLEDMGLKAFTNSKIRKPKMCPQLEPGLAPGGEEGVEEGGPEEGVEEGGFKEGVEGEPESSGKLRKYFPETWIWDLVVVNSAGVAEVGVTVPDTITEWKAGAFCLSEDAGLGISSTASLRAFQPFFVELTMPYSVIRGEAFTLKATVLNYLPKCIRVSVQLEASPAFLAVPVEKEQAPHCICANGRQTVSWAVTPKSLGNVNFTVSAEALESQELCGTEVPSVPEHGRKDTVIKPLLVEPEGLEKETTFNSLLCPSGGEVSEELSLKLPPNVVEESARASVSVLGDILGSAMQNTQNLLQMPYGCGEQNMVLFAPNIYVLDYLNETQQLTPEIKSKAIGYLNTGYQRQLNYKHYDGSYSTFGERYGRNQGNTWLTAFVLKTFAQARAYIFIDEAHITQALIWLSQRQKDNGCFRSSGSLLNNAIKGGVEDEVTLSAYITIALLEIPLTVTHPVVRNALFCLESAWKTAQEGDHGSHVYTKALLAYAFALAGNQDKRKEVLKSLNEEAVKKDNSVHWERPQKPKAPVGHFYEPQAPSAEVEMTSYVLLAYLTAQPAPTSEDLTSATNIVKWITKQQNAQGGFSSTQDTVVALHALSKYGAATFTRTGKAAQVTIQSSGTFSSKFQVDNNNRLLLQQVSLPELPGEYSMKVTGEGCVYLQTSLKYNILPEKEEFPFALGVQTLPQTCDEPKAHTSFQISLSVSYTGSRSASNMAIVDVKMVSGFIPLKPTVKMLERSNHVSRTEVSSNHVLIYLDKVSNQTLSLFFTVLQDVPVRDLKPAIVKVYDYYETDEFAIAEYNAPCSKDLGNADYKDDDDKGASHHHHHH
B3: Variant A2M, bait region SEQ ID NO 110 (other)
chain: SVSGKPQYMVLVPSLLHTETTEKGCVLLSYLNETVTVSASLESVRGNRSLFTDLEAENDVLHCVAFAVPKSSSNEEVMFLTVQVKGPTQEFKKRTTVMVKNEDSLVFVQTDKSIYKPGQTVKFRVVSMDENFHPLNELIPLVYIQDPKGNRIAQWQSFQLEGGLKQFSFPLSSEPFQGSYKVVVQKKSGGRTEHPFTVEEFVLPKFEVQVTVPKIITILEEEMNVSVCGLYTYGKPVPGHVTVSICRKYSDASDCHGEDSQAFCEKFSGQLNSHGCFYQQVKTKVFQLKRKEYEMKLHTEAQIQEEGTVVELTGRQSSEITRTITKLSFVKVDSHFRQGIPFFGQVRLVDGKGVPIPNKVIFIRGNEANYYSNATTDEHGLVQFSINTTNVMGTSLTVRVNYKDRSPCYGYQWVSEEHEEAHHTAYLVFSPSKSFVHLEPMSHELPCGHTQTVQAHYILNGGTLLGLKKLSFYYLIMAKGGIVRTGTHGLLVKQEDMKGHFSISIPVKSDIAPVARLLIYAVLPTGDVIGDSAKYDVENCLANKVDLSFSPSQSLPASHAHLRVTAAPQSVCALRAVDQSVLLMKPDAELSASSVYNLLPEKDLTGFPGPLNDQDDEDCINRHNVYINGITYTPVSSTNEKDMYSFLEDMGLKAFTNSKIRKPKMCPQLETEGRGEREAQGEFPEVEGEEEGGGPEKETGGEREAQGKLRKYFPETWIWDLVVVNSAGVAEVGVTVPDTITEWKAGAFCLSEDAGLGISSTASLRAFQPFFVELTMPYSVIRGEAFTLKATVLNYLPKCIRVSVQLEASPAFLAVPVEKEQAPHCICANGRQTVSWAVTPKSLGNVNFTVSAEALESQELCGTEVPSVPEHGRKDTVIKPLLVEPEGLEKETTFNSLLCPSGGEVSEELSLKLPPNVVEESARASVSVLGDILGSAMQNTQNLLQMPYGCGEQNMVLFAPNIYVLDYLNETQQLTPEIKSKAIGYLNTGYQRQLNYKHYDGSYSTFGERYGRNQGNTWLTAFVLKTFAQARAYIFIDEAHITQALIWLSQRQKDNGCFRSSGSLLNNAIKGGVEDEVTLSAYITIALLEIPLTVTHPVVRNALFCLESAWKTAQEGDHGSHVYTKALLAYAFALAGNQDKRKEVLKSLNEEAVKKDNSVHWERPQKPKAPVGHFYEPQAPSAEVEMTSYVLLAYLTAQPAPTSEDLTSATNIVKWITKQQNAQGGFSSTQDTVVALHALSKYGAATFTRTGKAAQVTIQSSGTFSSKFQVDNNNRLLLQQVSLPELPGEYSMKVTGEGCVYLQTSLKYNILPEKEEFPFALGVQTLPQTCDEPKAHTSFQISLSVSYTGSRSASNMAIVDVKMVSGFIPLKPTVKMLERSNHVSRTEVSSNHVLIYLDKVSNQTLSLFFTVLQDVPVRDLKPAIVKVYDYYETDEFAIAEYNAPCSKDLGNADYKDDDDKGASHHHHHH

What follows are binders tested against MMP13 (human, UniProt P45452 104-471, limits assumed) (assay: cell-based or functional assay).

Compared with B1, B2 is lower in “Protease Inhibition (% of WT)” value: 113 % of WT for the first, 56 % of WT for the second.

In the case of B3, the “Protease Inhibition (% of WT)” value is reported as 51 % of WT.

Each binder was assayed against T1, ADAMTS4 (assay: cell-based or functional assay).

Compared with B1, B2 is higher in “Protease Inhibition (% of WT)” value: 105 % of WT for the first, 108 % of WT for the second.

B3 was tested, and the “Protease Inhibition (% of WT)” value was 101 % of WT.

Each binder was assayed against T2, ADAMTS5 (assay: cell-based or functional assay).

First: B1
Second: B2
The “Protease Inhibition (% of WT)” value of the first is lower: 89 % of WT for the first, 199 % of WT for the second.

With B3 the “Protease Inhibition (% of WT)” value was 208 % of WT.
